What all share (test): flow cytometry, soluble tagged antigen staining T cells that carry the construct
Assay [1] addresses T1, Human NKG2A&CD94 Protein, Fc Tag (ACRO) (human, UniProt P26715 94-233; Q13241 32-179, limits assumed).
T1 construct: Bought heterodimer reagent (ACRO) with Fc tag

The target of assay [2] is T2, Human CTLA-4 / CD152 Protein, Fc Tag (ACRO) (human, UniProt P16410 36-161, limits assumed).
T2 construct: Bought reagent (ACRO); no catalogue number, no construct limits; not shown: Fc tag
T2 sequence (looked up): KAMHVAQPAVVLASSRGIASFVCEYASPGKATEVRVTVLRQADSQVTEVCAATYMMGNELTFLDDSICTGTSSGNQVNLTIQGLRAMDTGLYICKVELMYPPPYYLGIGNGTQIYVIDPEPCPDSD

For assay [3], the target named is T3, Human PD-1 / PDCD1 Protein, His Tag (ACRO) (human, UniProt Q15116 25-167).
T3 construct: Bought reagent (ACRO); no catalogue number, no construct limits; also called CD279; not shown: His tag

In assay [4] the target is T4, Human LAG-3 / CD223 Protein, His Tag (ACRO) (human, UniProt P18627 23-450).
T4 construct: Bought reagent (ACRO); no catalogue number, no construct limits; not shown: His tag
T4 sequence (looked up): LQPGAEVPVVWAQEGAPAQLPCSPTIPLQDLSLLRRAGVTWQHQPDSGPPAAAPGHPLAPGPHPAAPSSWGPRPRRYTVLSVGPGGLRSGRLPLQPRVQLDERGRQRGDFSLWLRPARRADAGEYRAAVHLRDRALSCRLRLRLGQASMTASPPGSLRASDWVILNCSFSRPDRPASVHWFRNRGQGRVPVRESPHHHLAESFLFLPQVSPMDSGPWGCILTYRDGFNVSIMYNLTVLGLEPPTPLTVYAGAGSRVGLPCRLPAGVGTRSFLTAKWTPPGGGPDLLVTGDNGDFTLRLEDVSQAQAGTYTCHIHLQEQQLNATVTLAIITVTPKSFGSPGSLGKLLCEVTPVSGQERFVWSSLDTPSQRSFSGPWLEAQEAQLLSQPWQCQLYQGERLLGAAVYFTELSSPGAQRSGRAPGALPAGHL

In assay [5] the target is T5, Human TIGIT Protein, Fc Tag (ACRO) (human, UniProt Q495A1 22-141).
T5 construct: Bought reagent (ACRO); no catalogue number, no construct limits; also called Human TIGIT Protein, Fc TagTIGIT; not shown: Fc tag
T5 sequence (looked up): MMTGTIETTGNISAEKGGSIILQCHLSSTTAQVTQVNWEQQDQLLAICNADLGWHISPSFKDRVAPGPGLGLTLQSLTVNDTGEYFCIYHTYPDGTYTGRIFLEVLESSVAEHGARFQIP

T1 sequence (P26715 94-233 limits assumed, chain 1 of 2): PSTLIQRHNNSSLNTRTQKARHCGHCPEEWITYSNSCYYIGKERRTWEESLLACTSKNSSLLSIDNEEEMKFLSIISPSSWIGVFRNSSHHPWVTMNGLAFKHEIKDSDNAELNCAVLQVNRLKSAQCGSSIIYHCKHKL
T1 sequence (Q13241 32-179 limits assumed, chain 2 of 2): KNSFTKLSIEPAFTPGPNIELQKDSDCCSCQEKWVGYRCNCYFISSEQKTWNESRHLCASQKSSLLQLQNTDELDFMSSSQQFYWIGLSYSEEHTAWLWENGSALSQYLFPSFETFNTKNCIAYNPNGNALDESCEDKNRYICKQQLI
T3 sequence (Q15116 25-167 limits assumed): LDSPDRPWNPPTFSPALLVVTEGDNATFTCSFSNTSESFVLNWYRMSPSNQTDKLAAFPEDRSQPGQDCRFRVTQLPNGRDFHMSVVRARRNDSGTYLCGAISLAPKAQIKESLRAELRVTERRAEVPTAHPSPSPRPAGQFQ

B1: immunosuppressive molecule of plasmid CAR19-AC4 (anti-NKG2A scFv, linker, anti-CTLA4 scFv, IgG4 hinge, CD28 transmembrane region, CD28 co-stimulatory domain), … (other)
chain: EIVLTQSPATLSLSPGERATMTCSASSSVSSYIYWYQQKPGQAPRLLIYLTSNLASGIPARFSGSGSGTDFTLTISSLEPEDFATYYCQQWSGNPYTFGQGTKVEIKGSTSGSGKPGSGEGSTKGEVQLVESGGGLVKPGGSLRLSCAASGFTFSSYAMSWVRQAPGKGLEWVAEISSGGSYTYYPDSVKGRFTISRDNAKNSLYLQMNSLRAEDTAVYYCTRHGDYPRFFDVWGQGTLVTVSSGGGGSGGGGSGGGGSQVQLVESGGGVVQPGRSLRLSCAASGFTFSSYGMHWVRQAPGKGLEWVAVIWYDGSNKYYADSVKGRFTISRDNSKNTLYLQMNSLRAEDTAVFYCARAPNYIGAFDVWGQGTMVTVSSGGGGSGGGGSGGGGSDIQMTQSPSSLSASVGDRVTITCRASQGISSWLAWYQQKPEKAPKSLIYAASSLQSGVPSRFSGSGSGTDFTLTISSLQPEDFATYYCQQYNSYPPTFGQGTKVEIKESKYGPPCPPCPFWVLVVVGGVLACYSLLVTVAFIIFWVRSKRSRLLHSDYMNMTPRRPGPTRKHYQPYAPPRDFAAYRS
notes: Membrane-anchored on transduced T cells that also express the anti-CD19 CAR
B1: the binding result in assay [1] and in assay [2] was “binds” each time.

B2: immunosuppressive molecule of plasmid CAR19-PL3 (anti-PD1 scFv, linker, anti-LAG3 scFv, IgG4 hinge, CD28 transmembrane region, CD28 co-stimulatory domain), on … (other)
chain: QVQLVQSGVEVKKPGASVKVSCKASGYTFTNYYMYWVRQAPGQGLEWMGGINPSNGGTNFNEKFKNRVTLTTDSSTTTAYMELKSLQFDDTAVYYCARRDYRFDMGFDYWGQGTTVTVSSGGGGSGGGGSGGGGSEIVLTQSPATLSLSPGERATLSCRASKGVSTSGYSYLHWYQQKPGQAPRLLIYLASYLESGVPARFSGSGSGTDFTLTISSLEPEDFAVYYCQHSRDLPLTFGGGTKVEIKGGGGSGGGGSGGGGSQVQLQQWGAGLLKPSETLSLTCAVYGGSFSDYYWNWIRQPPGKGLEWIGEINHRGSTNSNPSLKSRVTLSLDTSKNQFSLKLRSVTAADTAVYYCAFGYSDYEYNWFDPWGQGTLVTVSSGGGGSGGGGSGGGGSEIVLTQSPATLSLSPGERATLSCRASQSISSYLAWYQQKPGQAPRLLIYDASNRATGIPARFSGSGSGTDFTLTISSLEPEDFAVYYCQQRSNWPLTFGQGTNLEIKRESKYGPPCPPCPFWVLVVVGGVLACYSLLVTVAFIIFWVRSKRSRLLHSDYMNMTPRRPGPTRKHYQPYAPPRDFAAYRS
notes: as for B1
As for B2, the binding result in assay [3] and in assay [4] was “binds” in each case.

B3: immunosuppressive molecule of plasmid CAR19-C4TT (anti-CTLA4 scFv, linker, anti-TIGIT scFv, IgG4 hinge, CD28 transmembrane region, CD28 co-stimulatory domain), … (other)
chain: QVQLVESGGGVVQPGRSLRLSCAASGFTFSSYGMHWVRQAPGKGLEWVAVIWYDGSNKYYADSVKGRFTISRDNSKNTLYLQMNSLRAEDTAVFYCARAPNYIGAFDVWGQGTMVTVSSGGGGSGGGGSGGGGSDIQMTQSPSSLSASVGDRVTITCRASQGISSWLAWYQQKPEKAPKSLIYAASSLQSGVPSRFSGSGSGTDFTLTISSLQPEDFATYYCQQYNSYPPTFGQGTKVEIKGGGGSGGGGSGGGGSEVQLQQSGPGLVKPSQTLSLTCAISGDSVSSNSAAWNWIRQSPSRGLEWLGKTYYRFKWYSDYAVSVKGRITINPDTSKNQFSLQLNSVTPEDTAVFYCTRESTTYDLLAGPFDYWGQGTLVTVSSGGGGSGGGGSGGGGSDIVMTQSPDSLAVSLGERATINCKSSQTVLYSSNNKKYLAWYQQKPGQPPNLLIYWASTRESGVPDRFSGSGSGTDFTLTISSLQAEDVAVYYCQQYYSTPFTFGPGTKVEIKRESKYGPPCPPCPFWVLVVVGGVLACYSLLVTVAFIIFWVRSKRSRLLHSDYMNMTPRRPGPTRKHYQPYAPPRDFAAYRS
notes: as for B1
In the case of B3, the binding result in assay [5] and in assay [2] was “binds” in each case.

B4: immunosuppressive molecule of plasmid CAR19-C4L3 (anti-CTLA4 scFv, linker, anti-LAG3 scFv, IgG4 hinge, CD28 transmembrane region, CD28 co-stimulatory domain), … (other)
chain: QVQLVESGGGVVQPGRSLRLSCAASGFTFSSYGMHWVRQAPGKGLEWVAVIWYDGSNKYYADSVKGRFTISRDNSKNTLYLQMNSLRAEDTAVFYCARAPNYIGAFDVWGQGTMVTVSSGGGGSGGGGSGGGGSDIQMTQSPSSLSASVGDRVTITCRASQGISSWLAWYQQKPEKAPKSLIYAASSLQSGVPSRFSGSGSGTDFTLTISSLQPEDFATYYCQQYNSYPPTFGQGTKVEIKGGGGSGGGGSGGGGSQVQLQQWGAGLLKPSETLSLTCAVYGGSFSDYYWNWIRQPPGKGLEWIGEINHRGSTNSNPSLKSRVTLSLDTSKNQFSLKLRSVTAADTAVYYCAFGYSDYEYNWFDPWGQGTLVTVSSGGGGSGGGGSGGGGSEIVLTQSPATLSLSPGERATLSCRASQSISSYLAWYQQKPGQAPRLLIYDASNRATGIPARFSGSGSGTDFTLTISSLEPEDFAVYYCQQRSNWPLTFGQGTNLEIKRESKYGPPCPPCPFWVLVVVGGVLACYSLLVTVAFIIFWVRSKRSRLLHSDYMNMTPRRPGPTRKHYQPYAPPRDFAAYRS
notes: as for B1
For the molecule B4, the binding result in assay [4] and in assay [2] was “binds” in each case.

B5: immunosuppressive molecule of plasmid CAR18.2-PA (anti-PD1 scFv, linker, anti-NKG2A scFv, IgG4 hinge, CD28 transmembrane region, CD28 co-stimulatory domain), … (other)
chain: QVQLVQSGVEVKKPGASVKVSCKASGYTFTNYYMYWVRQAPGQGLEWMGGINPSNGGTNFNEKFKNRVTLTTDSSTTTAYMELKSLQFDDTAVYYCARRDYRFDMGFDYWGQGTTVTVSSGGGGSGGGGSGGGGSEIVLTQSPATLSLSPGERATLSCRASKGVSTSGYSYLHWYQQKPGQAPRLLIYLASYLESGVPARFSGSGSGTDFTLTISSLEPEDFAVYYCQHSRDLPLTFGGGTKVEIKGGGGSGGGGSGGGGSEIVLTQSPATLSLSPGERATMTCSASSSVSSYIYWYQQKPGQAPRLLIYLTSNLASGIPARFSGSGSGTDFTLTISSLEPEDFATYYCQQWSGNPYTFGQGTKVEIKGSTSGSGKPGSGEGSTKGEVQLVESGGGLVKPGGSLRLSCAASGFTFSSYAMSWVRQAPGKGLEWVAEISSGGSYTYYPDSVKGRFTISRDNAKNSLYLQMNSLRAEDTAVYYCTRHGDYPRFFDVWGQGTLVTVSSESKYGPPCPPCPFWVLVVVGGVLACYSLLVTVAFIIFWVRSKRSRLLHSDYMNMTPRRPGPTRKHYQPYAPPRDFAAYRS
Take B5: the binding result in assay [1] and in assay [3] was “binds” each time.

B6: immunosuppressive molecule of plasmid CAR19-AL3 (anti-NKG2A scFv, linker, anti-LAG3 scFv, IgG4 hinge, CD28 transmembrane region, CD28 co-stimulatory domain), … (other)
chain: EIVLTQSPATLSLSPGERATMTCSASSSVSSYIYWYQQKPGQAPRLLIYLTSNLASGIPARFSGSGSGTDFTLTISSLEPEDFATYYCQQWSGNPYTFGQGTKVEIKGSTSGSGKPGSGEGSTKGEVQLVESGGGLVKPGGSLRLSCAASGFTFSSYAMSWVRQAPGKGLEWVAEISSGGSYTYYPDSVKGRFTISRDNAKNSLYLQMNSLRAEDTAVYYCTRHGDYPRFFDVWGQGTLVTVSSGGGGSGGGGSGGGGSQVQLQQWGAGLLKPSETLSLTCAVYGGSFSDYYWNWIRQPPGKGLEWIGEINHRGSTNSNPSLKSRVTLSLDTSKNQFSLKLRSVTAADTAVYYCAFGYSDYEYNWFDPWGQGTLVTVSSGGGGSGGGGSGGGGSEIVLTQSPATLSLSPGERATLSCRASQSISSYLAWYQQKPGQAPRLLIYDASNRATGIPARFSGSGSGTDFTLTISSLEPEDFAVYYCQQRSNWPLTFGQGTNLEIKRESKYGPPCPPCPFWVLVVVGGVLACYSLLVTVAFIIFWVRSKRSRLLHSDYMNMTPRRPGPTRKHYQPYAPPRDFAAYRS
notes: Membrane-anchored on lentivirally transduced human T cells that also express the anti-CD19 CAR (separated by T2A)
Take B6: the binding result in assay [4] is recorded as “binds”.

B7: immunosuppressive molecule of plasmid CAR19-ATT (anti-NKG2A scFv, linker, anti-TIGIT scFv, IgG4 hinge, CD28 transmembrane region, CD28 co-stimulatory domain), … (other)
chain: EIVLTQSPATLSLSPGERATMTCSASSSVSSYIYWYQQKPGQAPRLLIYLTSNLASGIPARFSGSGSGTDFTLTISSLEPEDFATYYCQQWSGNPYTFGQGTKVEIKGSTSGSGKPGSGEGSTKGEVQLVESGGGLVKPGGSLRLSCAASGFTFSSYAMSWVRQAPGKGLEWVAEISSGGSYTYYPDSVKGRFTISRDNAKNSLYLQMNSLRAEDTAVYYCTRHGDYPRFFDVWGQGTLVTVSSGGGGSGGGGSGGGGSEVQLQQSGPGLVKPSQTLSLTCAISGDSVSSNSAAWNWIRQSPSRGLEWLGKTYYRFKWYSDYAVSVKGRITINPDTSKNQFSLQLNSVTPEDTAVFYCTRESTTYDLLAGPFDYWGQGTLVTVSSGGGGSGGGGSGGGGSDIVMTQSPDSLAVSLGERATINCKSSQTVLYSSNNKKYLAWYQQKPGQPPNLLIYWASTRESGVPDRFSGSGSGTDFTLTISSLQAEDVAVYYCQQYYSTPFTFGPGTKVEIKRESKYGPPCPPCPFWVLVVVGGVLACYSLLVTVAFIIFWVRSKRSRLLHSDYMNMTPRRPGPTRKHYQPYAPPRDFAAYRS
notes: as for B1
With B7, in assay [5], the binding result is given as “binds”.
